The source of these data is patent publication US20180217151A1.

The target of assay [1] is CD19 antigen on human PBMCs (human) (UniProt P15391). The experiment in a line: flow cytometry on human PBMCs, SA-APC median after five washing steps; background 0.2.
The target is the same in assay [2]. As to the kind of experiment: flow cytometry, human PBMCs, biotinylated Fab 1 µg/mL, SA-APC, before washing; median of control (background) 0.25. On the technique in general: A flow cytometer gives signals particle by particle.
Assay [3] shares this target. The experiment in a line: flow cytometry, human PBMCs, biotinylated Fab 1 µg/mL, SA-APC, after five washing steps; enables reversible labeling: yes.
Assay [4] addresses recombinant CD19 antigen (not stated (the Fab labels human PBMCs)) (UniProt P15391). As to the kind of experiment: SPR (Biacore), recombinant antigen (extracellular domain) immobilized by amine coupling, Fab as analyte, 1:1 binding mass transfer model. On the technique in general: Surface plasmon resonance follows binding to a sensor surface in real time, without labels.
In assay [5] the target is CD45RA antigen on human PBMCs (human) (UniProt P08575). As to the kind of experiment: flow cytometry, human PBMCs, biotinylated Fab 1 µg/mL, SA-APC, before washing; median of control (background) 0.1.
The target is the same in assay [6]. As to the kind of experiment: flow cytometry, human PBMCs, biotinylated Fab 1 µg/mL, SA-APC, after five washing steps; enables reversible labeling: yes.
For assay [7] the target is unchanged. As to the kind of experiment: flow cytometry, human PBMCs, biotinylated Fab 1 µg/mL, SA-APC, after five washing steps; median of control (background) 0.1; enables reversible labeling: yes.
For assay [8], the target named is CD8 antigen on human PBMCs (human) (UniProt P01732). The experiment in a line: flow cytometry, human PBMCs, biotinylated Fab 1 µg/mL, SA-APC, before washing; median of control (background) 0.1.
The target is the same in assay [9]. As to the kind of experiment: flow cytometry, human PBMCs, biotinylated Fab 1 µg/mL, SA-APC, after five washing steps; enables reversible labeling: no.
Assay [10] addresses recombinant CD8 antigen (not stated (the Fab labels human PBMCs)). As to the kind of experiment: SPR (Biacore), recombinant antigen (extracellular domain) immobilized by amine coupling, Fab as analyte, 1:1 binding mass transfer model.
The target of assay [11] is CD8 antigen on human PBMCs (human) (UniProt P01732). As to the kind of experiment: flow cytometry, human PBMCs, biotinylated Fab 1 µg/mL, SA-APC, after five washing steps; median of control (background) 0.1; enables reversible labeling: no.

Chain of CD8 antigen on human PBMCs (human) (P01732 22-235): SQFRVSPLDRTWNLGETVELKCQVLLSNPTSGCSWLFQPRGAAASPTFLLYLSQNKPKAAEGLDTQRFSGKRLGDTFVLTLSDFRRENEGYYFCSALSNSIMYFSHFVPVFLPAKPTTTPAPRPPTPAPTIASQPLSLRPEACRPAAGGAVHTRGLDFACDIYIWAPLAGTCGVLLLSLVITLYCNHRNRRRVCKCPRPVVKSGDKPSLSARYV
Chain of recombinant CD19 antigen (not stated (the Fab labels human PBMCs)) (P15391 20-291): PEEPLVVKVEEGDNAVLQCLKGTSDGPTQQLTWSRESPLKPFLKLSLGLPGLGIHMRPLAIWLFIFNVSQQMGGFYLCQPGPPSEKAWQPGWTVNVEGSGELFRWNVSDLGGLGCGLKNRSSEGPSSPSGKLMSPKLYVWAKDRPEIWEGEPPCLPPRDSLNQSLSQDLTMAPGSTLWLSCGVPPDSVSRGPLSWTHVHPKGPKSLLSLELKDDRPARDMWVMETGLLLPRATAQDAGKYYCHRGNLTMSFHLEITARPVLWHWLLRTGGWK
Chain of recombinant CD8 antigen (not stated (the Fab labels human PBMCs)) (P01732 22-182): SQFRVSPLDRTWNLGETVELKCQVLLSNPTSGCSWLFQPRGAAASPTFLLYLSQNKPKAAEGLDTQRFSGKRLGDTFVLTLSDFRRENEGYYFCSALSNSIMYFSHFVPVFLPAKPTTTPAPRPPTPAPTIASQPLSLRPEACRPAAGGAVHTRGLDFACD
Chain of CD19 antigen on human PBMCs (human) (P15391 20-556): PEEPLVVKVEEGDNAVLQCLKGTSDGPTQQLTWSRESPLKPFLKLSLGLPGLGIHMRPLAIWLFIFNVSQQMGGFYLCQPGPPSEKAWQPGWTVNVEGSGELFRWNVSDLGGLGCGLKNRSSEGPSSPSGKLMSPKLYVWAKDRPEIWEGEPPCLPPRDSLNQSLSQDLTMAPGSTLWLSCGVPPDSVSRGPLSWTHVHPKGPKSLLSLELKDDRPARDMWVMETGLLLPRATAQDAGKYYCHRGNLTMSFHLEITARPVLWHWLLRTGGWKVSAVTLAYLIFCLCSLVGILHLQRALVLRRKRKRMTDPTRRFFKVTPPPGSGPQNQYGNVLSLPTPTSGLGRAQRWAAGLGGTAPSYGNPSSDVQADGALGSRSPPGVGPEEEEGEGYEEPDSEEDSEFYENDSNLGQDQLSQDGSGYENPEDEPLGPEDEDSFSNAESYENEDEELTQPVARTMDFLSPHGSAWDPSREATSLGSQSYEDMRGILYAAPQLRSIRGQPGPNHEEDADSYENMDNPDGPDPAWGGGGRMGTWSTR

B1: SJ25-C1 pFab (Fab, from another filing, V domains shown)
VH: EVKLQQSGAELVRPGSSVKISCKASGYAFSSYWMNWVKQRPGQGLEWIGQIYPGDGDTNYNGKFKGQATLTADKSSSTAYMQLSGLTSEDSAVYFCARKTISSVVDFYFDYWGQGTTVTVSS
VL: DIELTQSPKFMSTSVGDRVSVTCKASQNVGTNVAWYQQKPGQSPKPLIYSATYRNSGVPDRFTGSGSGTDFTLTITNVQSKDLADYFCQQYNRYPYTSGGGTKLEI
Usually Kd stands for the equilibrium constant for the complex coming apart. Broadly, the koff is a measure of how fast the partners let go of each other. Usually kon stands for the second-order rate constant of association. In assay [1], B1 showed a median of remaining detectable label after removal of Fab of 1.2. The molecule further displayed a median value (i) in assay [2] of 27. The same molecule registered a % median value of the detected label after Fab removal (before = 100%) in assay [3] of 4.4%. Further, in assay [4], the Kd is 7 nM, the koff stood at 0.0031 s⁻¹ and the kon is 440000 M⁻¹ s⁻¹.

B2: MEM56-LAV rFab (Fab, V domains shown)
VH: QVQLQQSGAELAKPGASVKMSCKASGYNFTRYWMHWIKQRPGQGLEWIGYINPNTGHTEYNQKFKDKATLTADKSSSTAYMQLSSLTSEDSAVYYCATYYYGSRRDAGQGTTLTVSS
VL: QIVLTQSPAIMSASLGERVTMTCTTSSSVSSSYLHWYQQKPGSSPKLWIYSTSNLASGVPARFSGSGSGTSYSLTISTVEAEDAATYYCHQYHRSPLTFGAGTKLELKR
modifications: In the cell assay the Fab was biotinylated with a thiol-reactive reagent (e.g. maleimide-PEO2-biotin) on cysteines of the reduced disulfide bridge; positions not stated.
In assay [5], B2 gave a median value (i) of 2.9. In assay [6], this molecule gave a % median value of the detected label after Fab removal (before = 100%) of 6.9%. The median value after Fab removal (ii) in assay [7] is 0.2.

B3: OKT8 pFab (Fab, from another filing, V domains shown)
VH: EVQLQQSGAELVKPGASVKLSCTASGFNIKDTYIHFVRQRPEQGLEWIGRIDPANDNTLYASKFQGKATITADTSSNTAYMHLCSLTSGDTAVYYCGRGYGYYVFDHWGQGTTLTVSS
VL: DVQINQSPSFLAASPGETITINCRTSRSISQYLAWYQEKPGKTNKLLIYSGSTLQSGIPSRFSGSGSGTDFTLTISGLEPEDFAMYYCQQHNENPLTFGAGTKLELK
In the case of B3, in assay [8], the median value (i) turned out to be 45. The % median value of the detected label after Fab removal (before = 100%) in assay [9] was found to be 51%. In assay [10], the Kd worked out at 0.62 nM, the koff was 0.0013 s⁻¹ and the kon was found to be 2.1e+06 M⁻¹ s⁻¹. Besides, the median value after Fab removal (ii) in assay [11] was determined as 23.
